We go through 1 substance from US20090311248A1.

The assay concerns the target E1s (HCV E1 envelope protein, aa 192-326 of the HCV polyprotein) (Hepatitis C virus (HCV)). Kind of assay: coating ELISA, E1s at 0.5 ug/ml, hybridoma supernatant. (In an ELISA, binding on a coated surface is turned into a signal by an enzyme label.)

On to 4G2 (antibody), for which the O.D. value (450-595 nm) is over 2 O.D.
